The series has as its target T1, SHMT2 K281S-R284S K302S;R305S (UniProt P34897).
T1 sequence: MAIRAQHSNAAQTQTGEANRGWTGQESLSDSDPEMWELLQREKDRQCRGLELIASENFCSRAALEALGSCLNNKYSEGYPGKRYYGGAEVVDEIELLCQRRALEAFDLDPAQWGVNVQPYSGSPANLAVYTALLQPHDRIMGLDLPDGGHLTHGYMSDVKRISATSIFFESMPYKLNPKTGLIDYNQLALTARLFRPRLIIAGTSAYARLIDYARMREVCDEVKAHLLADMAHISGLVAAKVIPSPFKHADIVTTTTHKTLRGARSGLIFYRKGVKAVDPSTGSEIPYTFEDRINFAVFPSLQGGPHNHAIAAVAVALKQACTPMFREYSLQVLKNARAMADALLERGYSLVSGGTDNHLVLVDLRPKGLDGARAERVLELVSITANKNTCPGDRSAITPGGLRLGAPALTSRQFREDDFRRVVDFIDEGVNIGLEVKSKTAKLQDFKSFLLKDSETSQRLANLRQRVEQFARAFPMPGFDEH
Put plainly: EMSA. To be noted: EMSA: 20 mM HEPES pH 7.4, 150 mM NaCl, 20 ug/ml BSA, 0.1 ug tRNA, RNase inhibitor, 8% glycerol, 25 C, 30 min; 4% native PAGE in 0.5x TBE.

With “GGGAUAAAGAAAAAAGCGGUGAGUGGGCGAACUACAAUUCCCAAAAGGCCACAAAGGGGCCACCACUACGCAUGCGUAGAUCCCUCCCGUUAGCUUUGGCGCCUCAGCGAGCUCUUCUCGCGCAUGCGUUCUCCGAACGGUCUUCUUCCGACAGCUUGCUGCCCUAGACCAGAGUUGGUGGCUGGACCUCCUGCGACUUCCGAGUUGCG [UTR2 RNA]”, the Kd was 1.6 µM.

The record behind these values is paper PMC12328718.
